Data on one molecule can be found in publication doi:10.64898/2025.12.08.692793 (bioRxiv, 2025).

The assay deals with metabotropic glutamate receptor 2 (mGlu2) (human, UniProt Q14416 19-872). Nature of the assay: cryo-EM structure.
Sequence of metabotropic glutamate receptor 2 (mGlu2) (Q14416 19-872): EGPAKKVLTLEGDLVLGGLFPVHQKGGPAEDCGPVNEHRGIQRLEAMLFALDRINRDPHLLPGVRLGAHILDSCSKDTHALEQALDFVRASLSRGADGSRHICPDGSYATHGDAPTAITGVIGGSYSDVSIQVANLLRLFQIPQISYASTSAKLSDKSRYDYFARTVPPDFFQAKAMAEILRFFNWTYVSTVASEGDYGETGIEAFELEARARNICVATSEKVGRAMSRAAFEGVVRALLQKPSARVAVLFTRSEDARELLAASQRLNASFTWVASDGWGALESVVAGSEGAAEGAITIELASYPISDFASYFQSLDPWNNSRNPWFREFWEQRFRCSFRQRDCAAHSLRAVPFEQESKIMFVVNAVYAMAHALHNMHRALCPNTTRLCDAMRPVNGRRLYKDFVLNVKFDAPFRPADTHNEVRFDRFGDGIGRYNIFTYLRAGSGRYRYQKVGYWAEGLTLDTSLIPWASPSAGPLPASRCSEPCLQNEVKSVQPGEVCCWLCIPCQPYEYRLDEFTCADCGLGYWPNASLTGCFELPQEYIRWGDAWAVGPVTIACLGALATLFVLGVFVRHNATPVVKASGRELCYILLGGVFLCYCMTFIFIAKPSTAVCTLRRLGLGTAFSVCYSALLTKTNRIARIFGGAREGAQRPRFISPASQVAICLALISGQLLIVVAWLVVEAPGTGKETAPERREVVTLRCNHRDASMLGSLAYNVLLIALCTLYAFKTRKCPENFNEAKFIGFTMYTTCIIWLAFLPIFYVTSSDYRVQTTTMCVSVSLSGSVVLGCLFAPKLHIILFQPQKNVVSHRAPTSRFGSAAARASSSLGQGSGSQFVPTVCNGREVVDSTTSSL

With LPQEYIRW [FTM peptide (Force Transduction Motif, mGlu2 residues 556-563)], the binding result is recorded as “binds”.
